Experimental data as given in publication PMC5962572, “Crystal structure of dihydrodipicolinate reductase (PaDHDPR) from Paenisporosarcina sp. TG-14: structural basis for NADPH preference as a cofactor” (Scientific Reports, 2018).
Values belong to the molecule of their own block, whether it stands above or below them.

Columns and labels:
PaDHDPR [1] = target: T1, PaDHDPR (Paenisporosarcina sp. TG-14, UniProt A0A3B6UER2); assay: X-ray crystallography, co-crystals, […] Å (binary) and […] Å (with NADPH); assay type: binding; conditions: 10 mM DPA; substrate site of the C-terminal domain; competitive inhibitor
T1 construct: gene dapB; full length, residues 1-264; pET-28a N-terminal His tag removed by thrombin; expressed in E. coli BL21(DE3); homotetramer
T1 sequence (A0A3B6UER2 2-265): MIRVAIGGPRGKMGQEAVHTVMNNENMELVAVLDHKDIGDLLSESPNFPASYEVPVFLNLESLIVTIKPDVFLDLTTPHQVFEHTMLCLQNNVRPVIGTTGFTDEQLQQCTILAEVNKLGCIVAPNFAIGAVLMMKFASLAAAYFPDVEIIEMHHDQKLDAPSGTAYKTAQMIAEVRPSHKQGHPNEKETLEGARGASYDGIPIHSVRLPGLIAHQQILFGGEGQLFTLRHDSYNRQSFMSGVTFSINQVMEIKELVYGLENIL

PaDHDPR [2] = target: T1, PaDHDPR; assay: isothermal titration calorimetry; assay type: binding; conditions: 50 mM Tris-HCl, 150 mM NaCl, pH 8.0, 25 °C; 80 μM protein, 1 mM ligand
PaDHDPR [3] = target: T1, PaDHDPR; assay: isothermal titration calorimetry, one-site model; assay type: binding
PaDHDPR [4] = target: T2, PaDHDPR (Paenisporosarcina sp. TG-14, UniProt A0A3B6UER2, H36A); assay: isothermal titration calorimetry, one-site model; assay type: binding; conditions: 50 mM Tris-HCl, 150 mM NaCl, pH 8.0, 25 °C
T2 construct: gene dapB; full length, residues 1-264; pET-28a N-terminal His tag removed by thrombin; expressed in E. coli BL21(DE3); homotetramer
T2 sequence (A0A3B6UER2 entry or part of it H36A): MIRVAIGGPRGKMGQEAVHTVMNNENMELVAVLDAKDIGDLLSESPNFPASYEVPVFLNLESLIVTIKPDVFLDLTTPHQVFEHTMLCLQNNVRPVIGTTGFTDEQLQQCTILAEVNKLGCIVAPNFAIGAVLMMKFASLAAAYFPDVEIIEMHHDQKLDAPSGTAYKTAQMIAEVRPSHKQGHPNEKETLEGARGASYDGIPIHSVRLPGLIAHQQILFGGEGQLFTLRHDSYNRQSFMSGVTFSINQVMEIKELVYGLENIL

PaDHDPR [5] = target: T3, PaDHDPR (Paenisporosarcina sp. TG-14, UniProt A0A3B6UER2, K37A); assay: isothermal titration calorimetry, one-site model; assay type: binding
T3 construct: gene dapB; full length, residues 1-264; pET-28a N-terminal His tag removed by thrombin; expressed in E. coli BL21(DE3); homotetramer
T3 sequence (A0A3B6UER2 entry or part of it K37A): as the sequence (A0A3B6UER2 entry or part of it H36A) above, with A35H, K36A counted along it

[6] = target: Dihydrodipicolinate reductase from Paenisporosarcina sp. TG-14 (Paenisporosarcina sp. TG-14); assay: AUC; analytical centrifugation of purified PaDHDPR; conditions not told in the main text
purified protein [7] = substrate: NC(=O)C1=CN([C@@H]2O[C@H](COP(=O)(O)OP(=O)(O)OC[C@H]3O[C@@H](n4cnc5c(N)ncnc54)[C@H](O)[C@@H]3O)[C@@H](O)[C@H]2O)C=CC1; assay: purified protein; assay type: biochemical, Paenisporosarcina sp. TG-14; conditions: NADH varied, DHDP generated from ASA and pyruvate, 100 mM HEPES pH 7.5, 25 °C, varied: cofactor
purified protein [8] = substrate: NC(=O)C1=CN([C@@H]2O[C@H](COP(=O)(O)OP(=O)(O)OC[C@H]3O[C@@H](n4cnc5c(N)ncnc54)[C@H](OP(=O)(O)O)[C@@H]3O)[C@@H](O)[C@H]2O)C=CC1; assay: purified protein; assay type: biochemical, Paenisporosarcina sp. TG-14; conditions: NADPH varied, DHDP generated from ASA and pyruvate, 100 mM HEPES pH 7.5, 25 °C, varied: cofactor
purified protein [9] = substrate: O=C(O)C1=N[C@H](C(=O)O)CC=C1; assay: purified protein; assay type: biochemical, Paenisporosarcina sp. TG-14; conditions: ASA (L-aspartate-semialdehyde) concentration varied and printed as the substrate, ASA fully converted to DHDP by PaDHDPS with 1 mM pyruvate, NADPH, 100 mM HEPES pH 7.5, 25 °C

Molecule: O=C(O)c1cccc(C(=O)O)n1 [DPA]
X-ray crystallography, co-crystals, 1.8 Å (binary) and 2.1 Å (with NADPH) (PaDHDPR [1]): Electron density corresponding to DPA was observed in the substrate-binding site of the C-terminal domain

no binding detected (PaDHDPR [2]): NADH did not bind to PaDHDPR
Molecule: NC(=O)C1=CN([C@@H]2O[C@H](COP(=O)(O)OP(=O)(O)OC[C@H]3O[C@@H](n4cnc5c(N)ncnc54)[C@H](O)[C@@H]3O)[C@@H](O)[C@H]2O)C=CC1 [NADH]

Kd (PaDHDPR [3]): 37 µM | Kd (PaDHDPR [5]): 236 µM
Molecule: NC(=O)C1=CN([C@@H]2O[C@H](COP(=O)(O)OP(=O)(O)OC[C@H]3O[C@@H](n4cnc5c(N)ncnc54)[C@H](OP(=O)(O)O)[C@@H]3O)[C@@H](O)[C@H]2O)C=CC1 [NADPH]
no binding detected (PaDHDPR [4]): H35A mutation induced complete loss of binding affinity

stoichiometry N [6]: 4
Molecule: Dihydrodipicolinate reductase from Paenisporosarcina sp. TG-14 (enzyme)

B1: PaDHDPR (Paenisporosarcina sp. TG-14) (protein)
chain: T1 sequence (A0A3B6UER2 2-265)
notes: full length, residues 1-264; pET-28a N-terminal His tag removed by thrombin; expressed in E. coli BL21(DE3); homotetramer
Km (purified protein [7]): 43 ± 8.9 µM | kcat (purified protein [7]): 7.1 ± 0.1 s⁻¹ | Km (purified protein [8]): 22 ± 1.4 µM | kcat (purified protein [8]): 55 ± 1.2 s⁻¹ | Km (purified protein [9]): 12 ± 1.6 µM | kcat (purified protein [9]): 52 ± 1.1 s⁻¹
